Source: the DeepSol protein solubility set

Experiment: soluble on expression in E. coli; label from the status in PepcDB or PDB records

Sequence | soluble on expression in E. coli
MEHHHHHHATNLRGVMAALLTPFDQQQALDKASLRRLVQFNIQQGIDGLYVGGSTGEAFVQSLSEREQVLEIVAEEAKGKIKLIAHVGCVSTAESQQLAASAKRYGFDAVSAVTPFYYPFSFEEHCDHYRAIIDSADGLPMVVYNIPALSGVKLTLDQINTLVTLPGVGALKQTSGDLYQMEQIRREHPDLVLYNGYDNIFASGLLAGADGGIGSTYNIMGWRYQGIVKALKEGDIQTAQKLQTECNKVIDLLIKTGVFRGLKTVLHYMDVVSVPLCRKPFGPVDEKYLPELKALAQQLMQER | soluble
MEHKIGRGLLLGGLLSRFAGFLQSSEESLTSSFASYSSSFFLLTNTRDKRRSERTHTYMQVAQIICAHGATISTTRATLQRAPQSLLATSPDATSDSDDKIVRILVEALRRSDMSIIVSESFDQWARLAVEAKRLGLISFVEAACPSTISISCHAALSTGRINPEVTFRKVHNIHFMAQKTTGKAFASSNPEPVKGTTTSPFFLLSFFFPFFCSFLLRFSPINFPLLLLMNTAIGEYVLRIVVSGKVIMCRAVFGDSLNECRDGGGTDFEMDRYTSR | not soluble
MEHKIREEMRVLPSIDPQFEIERRVAFIKRKLTEARCKSLVLGISGGVDSTTCGRLAQLAVEELNQQHNTTEYQFIAVRLPYGEQKDEDEAQLALSFIRPTHSVSVNIKAGVDGLHAASHHALANTGLIPSDPAKVDFIKGNVKARARMVAQYEIAGYVGGLVLGTDHSAENITGFYTKFGDGACDLAPLFGLNKRQVRLLAKTLGAPEQLVYKTPTADLEELAPQKADEAALNLTYEQIDDFLEGKAVPAEVSQRLVAIYHATQHKRQPIPTIYD | soluble
MEIELICICCPKGCHLKVDDKSLRVEGNNCPRGAEYGVNEITNPVRTITSTVKVEKGEAVIVPVKTKEPIPKKLTMGCMEEINKAVINAPVKIGDVVIKNVLGTGIDVVATKNVSGI | soluble
MEINEKLLRQIIEDVLSEMKGSDKPVSFNAPAASAAPQATPPAGDGFLTEVGEARQGTQQDEVIIAVGPAFGLAQTVNIVGIPHKSILREVIAGIEEEGIKARVIRCFKSSDVAFVAVEGNRLSGSGISIGIQSKGTTVIHQQGLPPLSNLELFPQAPLLTLETYRQIGKNAARYAKRESPQPVPTLNDQMARPKYQAKSAILHIKETKYVVTGKNPQELRVAL | soluble
MEINSREVYVFTPKGDVMSLPQGATPVDFAYAVHTEVGHRCIGARVNGKLVTLDTKLNNGDVIDILTSNAPDAGPSRLEHHHHHH | not soluble
MEINVQSDVGRKRNTNQDYANVFENQQHITFAVLADGMGGHQAGDVASQMAVNNLGESWSNASVDSAEKSAQWLIQAIQKENEKIYERGQSKPEYLGMGTTVVGAILLPDSFVLANVGDSRAYLVRDQHMLQLTEDHSLVNELVKSGEITREMAANHPRKNVLTRSLGMPGTVEVDVTNHEWLPNDYLLLCSDGLTNMVPETKILEILETSDPLESKLSQLVAQANEAGGLDNITVLVIHFDEQKEENQ | not soluble
MEISTLLALSPLDGRYQQKVAALRPFFSEYALIRNRIHVEIEWFKALGNTPALTGASSLSTGAVVQLDQLVENFSVTDAEAVKSIETRTNHDVKAVEYWLKEKLTGDQETAAISE | not soluble
MEITNVNEYEAIAKQKLPKMVYDFYASGAEDQWTLAENRNAFSRILFRPRILIDVTNIDMTTTILGFKISMPIMIAPTAMQKMAHPEGEYATARAASAAGTIMTLSSWATSSVEEVASTGPGIRFFQLYVYKDRNVVAQLVRRAERAGFKAIALTVDTPRLGRREADIKNRFVLPPFLTLKNFEGIDLGKMDKANDSGLSSYVAGQIDRSLSWKDVAWLQTITSLPILVKGVITAEDARLAVQHGAAGIIVSNHGARQLDYVPATIMALEEVVKAAQGRIPVFLDGGVRRGTDVFKALALGAAGVFIGRPVVFSLAAEGEAGVKKVLQMMRDEFELTMALSGCRSLKEISRSHIAADWDGPSSRAVARL | soluble
MEIYLVFVDAASNSNKFWTAKVEQNQLTVQWDRVGYKAQTKVHQFTSQAQAANKYNNLVFEKKAKGYQESQPQIESCGVVDIRRAMQLLNGLRSYVTNRNFNADYINLLNQYLKIIPTPLGMQLEPYRIFTSVADVDHQRELLSSLIPATPVAVTQAKQMPESQEKIVSLRGIHKNLWRHFLEHHHHHH | not soluble
MEKLSSSSHFLDLGGLDNLRAQAQKDEKGALKKVAQQFEGVFVQMLMKSMRDANAVFESDSPLNSQYTKFYEQMRDQQLSVDLSDKGVLGLADMMVQQLSPESSPFTPASVLRNDGGMKLEHDAKALNIPTQTPSTAEAESANTPVVVAHGVPASIARPSVEFEDNNGVTSSLDIDRPQRLLAIDTPKPTWSEQPLSAIEPVISGQILPTVAFRETQKTLKFGSREEFLATLYPHAEKAAKALGTKPEVLLAQSALETGWGQKIVRGHNGAPSHNLFNIKADRRWQGDKANVSTLEFEQGIAVRQKADFRVYNDFDHSFNDFVSFIADGERYQDAKKVAASPTQFIRALQEAGYATDPKYAEKVIKVMQSISEELKSILPGEDK | not soluble
MEKRGKVWLAVSGLVATKDGRWLFVKKKYSGLKGKWSLPAGFVNEGETVDEAVKREVLEETGIVAHVKGIIGVRSGVIRNEISDNMIIFLLEPEGENIIIQEKELSEVAFLHPDKIVDDPNTSVLIKYLLEGRSELHLEVDKTLNPGEPFGYTAYHVFTARAKERGKE | not soluble
MEKSAPSIILNHWCVTWQGHHFLCRNLSNIKILNRRNGYTTLDLPLTLGDLTQYRLAHGLSENLMALSPYSWTIPFLVSSSETPGIELLPKVINDFGTPLSLAIKTNLPSIPAHQLLFYIIFLRPSPLTSMSCYARPLSLASTPSLEHHHHHH | soluble
MEKSKPNVVFVLGGPGSGKGTQCANIVRDFGWVHLSAGDLLRQEQQSGSKDGEMIATMIKNGEIVPSIVTVKLLKNAIDANQGKNFLVDGFPRNEENNNSWEENMKDFVDTKFVLFFDCPEEVMTQRLLKRGESSGRSDDNIESIKKRFNTFNVQTKLVIDHYNKFDKVKIIPANRDVNEVYNDVENLFKSMGF | soluble
MEKSLETVPGLDLSGEDIEMYYQYVRFVDRFLRFNRNYQIEYFKLSYPGDGSSEREVDLLKRWIDTVIQLKVKDLDFFDYSWEWGFDNFQLPSTIYICESLVSLKLSTVTLPSVKSVSLPFLRVLKLGAVKFADHLDLETLISGCTALETLAIRFFDRVQVLQVSSQSLLSFTHVAPKLVFTHAVRKPLAEKDLSIVIDAPRLEYLKLSDHQTSSFIIKNPGSLVAVDIDINLSSGFDSRNMIRDFLVGISSVKNMTISSIILKFYDYRFKMLPTFLEICPNLKSLILKSTEELGIKESSMFSGPQDFLPSLEYVEMKMPLKKGLLLEIRMLVGYFLEKATILKKLTLCLDDYRKRKESLIPRILAIPRISTSCEVVVL | soluble
MEKTSNTSKPLSRSEINKIIAVATGIKEKKIKEIFKYLNTLLLNELVSRSVCILPENLGKLRITIRNARYQKDMQTGEIRHIPPKPLVRYSPSKTIKETAAKVRWKYAD | soluble
MEKVHAALTNPAYWDFIVKNLSPEPGEVHEFTEANGGAVATLFEVLPQELLPEAIRAMISQALKVKRVVTVGGLNGTSAPLSYTADVKGTPVDFKGEISMNGLGNTTTLSYANEITVNIPLMGAAIEPKVGQALADLFQNEGDLTSKWISKNL | not soluble
MELAKFIGLTTFQDILEDCFALLVYERPEESNVGYFLEETQREVVADTVNAAILSTKPKGKNQSHSHLETLLRQLTACCLELRSLNDGQGEAFSLNRLLRTNNWKRTKKTT | soluble
MELAQEARELGCWAVEEMGVPVAARAPESTLRRLCLGQGADIWAYILQHVHSQRTVKKIRGNLLWYGHQDSPQVRRKLELEAAVTRLRAEIQELDQSLELMERDTEAQDTAMEQARQHTQDTQRRALLLRAQAGAMRRQQHTLRDPMQRLQNQLRRLQDMERKAKVDVTFGSLTSAALGLEPVVLRDVRTACTLRAQFLQNLLLPQAKRGSLPTPHDDHFGTSYQQWLSSVETLLTNHPPGHVLAALEHLAAEREAEIRSLCSGDGLGDTEISRRAGGLWVCWSPSGAPS | soluble
